Assay results: article PMC10382551, “Affinity-matured homotypic interactions induce spectrum of PfCSP structures that influence protection from malaria infection” (Nature Communications, 2023)
Ends that are not written are not given here.

How the values were obtained:
Details in all cases: both partners purified
[1] = biological target: T1, NPNA8 peptide (Plasmodium falciparum (isolate 3D7)., not fully specified); assay: BLI
T1 construct: source: synthetic peptide (InnoPep Inc)
T1 chain: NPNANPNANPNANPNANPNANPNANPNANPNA

[2] = biological target: T2, NPNA4 peptide (Plasmodium falciparum (isolate 3D7)., not fully specified); assay: BLI
T2 construct: source: synthetic peptide (InnoPep Inc)
T2 chain: NPNANPNANPNANPNA

[3] = biological target: T3, NPNA4 peptide, biotinylated at the C-terminus (BLI) (Plasmodium falciparum (isolate 3D7).); assay: BLI
T3 construct: source: synthetic peptide (InnoPep Inc)
T3 chain: NPNANPNANPNANPNA-biotin

[4] = biological target: T4, NPNA4 peptide (Plasmodium falciparum (isolate 3D7)., not fully specified); assay: BLI
T4 construct: source: synthetic peptide (InnoPep Inc, purity >=97%)
T4 chain: NPNANPNANPNANPNA

[5] = biological target: T5, NPNA8 peptide (Plasmodium falciparum (isolate 3D7)., not fully specified); assay: BLI
T5 construct: source: synthetic peptide (InnoPep Inc, purity >=97%)
T5 chain: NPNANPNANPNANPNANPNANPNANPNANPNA

[6] = biological target: T6, NPNA8 peptide (used for cryo-EM with Fab 227) (Plasmodium falciparum, not fully specified); assay: cryo-EM structure; saturating amounts of Fab incubated with rsCSP (or NPNA8 for Fab 227) overnight at 4 °C, complex purified by SEC (Superose 6 Increase, TBS), single particle cryo-EM
T6 construct: source: synthetic peptide (InnoPep Inc)
T6 chain: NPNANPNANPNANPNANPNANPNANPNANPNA

[7] = biological target: T6, NPNA8 peptide (used for cryo-EM with …); assay: as above

B1: 356 Fab (Fab, V domains shown)
VH: QVQLVESGGGVVQPGRSLRLSCAASGFTFRNFGMHWVRQTPGKGLEWVAVIWHDGSNKFYADSVEGRFTISRDNSKNMIYLQMNSLRVEDTAIYYCARDSLFYDHDNSGYYGYWGQGTLVTVSS
VL: QIVMTQSPATVSVSPGERATLSCRASRSVTSKLAWYQQKPGQAPRLLIYGASTRATGIPARFSGSGSGTEFTLTISSLQSEDFAVYFCQQYNNGFTFGPGTKVDFK
notes: also called mAb 356; source: ExpiCHO cells, purified (mAb Select PrismA or Capture Select, SEC)
[1]
  Kd: 6.4 nM
  koff: 0.00056 s⁻¹
  kon: 87000 M⁻¹ s⁻¹
[2]
  Kd: 123 nM
  koff: 0.013 s⁻¹
  kon: 80000 M⁻¹ s⁻¹

B2: Fab 356R, germline-reverted mutant of 356 (Fab, V domains shown)
VH: QVQLVESGGGVVQPGRSLRLSCAASGFTFSSYGMHWVRQTPGKGLEWVAVIWHDGSNKFYADSVKGRFTISRDNSKNMIYLQMNSLRVEDTAIYYCARDSLFYDHDNSGYYGYWGQGTLVTVSS
VL: EIVMTQSPATVSVSPGERATLSCRASQSVTSKLAWYQQKPGQAPRLLIYGASTRATGIPARFSGSGSGTEFTLTISSLQSEDFAVYFCQQYNNGFTFGPGTKVDFK
notes: source: ExpiCHO cells, purified (mAb Select PrismA or Capture Select, SEC)
[3]
  fold change of apparent affinity against 356: ~2 fold

B3: 356R Fab (Fab, V domains shown)
VH: QVQLVESGGGVVQPGRSLRLSCAASGFTFSSYGMHWVRQTPGKGLEWVAVIWHDGSNKFYADSVKGRFTISRDNSKNMIYLQMNSLRVEDTAIYYCARDSLFYDHDNSGYYGYWGQGTLVTVSS
VL: EIVMTQSPATVSVSPGERATLSCRASQSVTSKLAWYQQKPGQAPRLLIYGASTRATGIPARFSGSGSGTEFTLTISSLQSEDFAVYFCQQYNNGFTFGPGTKVDFK
notes: also called Fab356R; germline-reverted 356; source: ExpiCHO cells, purified (mAb Select PrismA or Capture Select, SEC)
[4]
  Kd: 65 nM
[5]
  Kd: 124 nM

B4: 356 Fab (Fab, V domains shown)
VH: QVQLVESGGGVVQPGRSLRLSCAASGFTFRNFGMHWVRQTPGKGLEWVAVIWHDGSNKFYADSVEGRFTISRDNSKNMIYLQMNSLRVEDTAIYYCARDSLFYDHDNSGYYGYWGQGTLVTVSS
VL: QIVMTQSPATVSVSPGERATLSCRASRSVTSKLAWYQQKPGQAPRLLIYGASTRATGIPARFSGSGSGTEFTLTISSLQSEDFAVYFCQQYNNGFTFGPGTKVDFK
notes: as for B2
[4]
  Kd: 123 nM
[5]
  Kd: 6.35 nM

B5: 356R Fab (Fab, V domains shown)
VH: QVQLVESGGGVVQPGRSLRLSCAASGFTFSSYGMHWVRQTPGKGLEWVAVIWHDGSNKFYADSVKGRFTISRDNSKNMIYLQMNSLRVEDTAIYYCARDSLFYDHDNSGYYGYWGQGTLVTVSS
VL: EIVMTQSPATVSVSPGERATLSCRASQSVTSKLAWYQQKPGQAPRLLIYGASTRATGIPARFSGSGSGTEFTLTISSLQSEDFAVYFCQQYNNGFTFGPGTKVDFK
notes: also called germline-reverted 356; source: ExpiCHO cells, purified (mAb Select PrismA or Capture Select, SEC)
[1]
  Kd: 124 nM
  koff: 0.017 s⁻¹
  kon: 79000 M⁻¹ s⁻¹
[2]
  Kd: 79 nM
  koff: 0.03 s⁻¹
  kon: 560000 M⁻¹ s⁻¹

B6: Fab 239R, germline-reverted mutant of 239 (Fab, V domains shown)
VH: QVQLVESGGGVVQPGRSLRLSCAASRLTFSSYGMHWVRQTPGKGLEWVAVIWHDGSNKFYADSVKGRFTISRDNSKNTLYLQMNSLRDEDTAIYYCAKDWGGASDRVFDYWGRGTLVIVSS
VL: DIQMTQSPSTLSASVGDRVTITCRASQSVSTSLAWYQQKPGKAPNLLIYQASTLYTGVPSRFSGSGSGTEFTLTIGSLQPDDFATYYCQHYNSYSRITFGQGTRLEIK
notes: as for B2
[3]
  fold change of apparent affinity against 239: ~2 fold

B7: 239 Fab (Fab, V domains shown)
VH: QVQLVESGGGVVQPGRSLRLSCAASRLTFRNFGMHWVRQTPGKGLEWVAVIWHDGSNKFYADSVEGRFTISRDNSKNTLYLQMNSLRDEDTAIYYCAKDWGGASDRVFDYWGRGTLVIVSS
VL: DIQMTQSPSTLSASVGDRVTITCRASQSVSTSLAWYQQKPGKAPNLLIYQASTLYRGVPSRFSGSGSGTEFTLTIGSLQPDDFATYYCQHYNSYSRITFGQGTRLEIK
notes: as for B2
[4]
  Kd: 44.7 nM
[5]
  Kd: 7.22 nM

B8: 239R Fab (Fab, V domains shown)
VH: QVQLVESGGGVVQPGRSLRLSCAASRLTFSSYGMHWVRQTPGKGLEWVAVIWHDGSNKFYADSVKGRFTISRDNSKNTLYLQMNSLRDEDTAIYYCAKDWGGASDRVFDYWGRGTLVIVSS
VL: DIQMTQSPSTLSASVGDRVTITCRASQSVSTSLAWYQQKPGKAPNLLIYQASTLYTGVPSRFSGSGSGTEFTLTIGSLQPDDFATYYCQHYNSYSRITFGQGTRLEIK
notes: also called Fab239R; 239 FabR; source: ExpiCHO cells, purified (mAb Select PrismA or Capture Select, SEC)
[4]
  Kd: 165 nM
[5]
  Kd: 205 nM

B9: Fab of mAb 227 (Fab, V domains shown)
VH: QVQLVQSGGGVVQPGRSLRLSCVTSGFTFPAFGMHWVRQAPGKGLEWVAVIWYDGSKKYYADSVRGRFTISRDNSRNTLYLQMHSLRAEDTAVYYCARVKNYESSGYSQCLDYWGQGVLVTVAS
VL: QSVLTQPPSVSGAPGQRVTISCTGSSSNIGAGYDVHWYQQLPGTAPKLLIYGNGNRPSGVPDRFSGSKSGTSVSLAITGLQAEDEADYYCQSYDSSLSAFVFGTGTKVTVL
notes: also called 227 Fab; source: ExpiCHO cells, purified (mAb Select PrismA or Capture Select, SEC)
[6]
  stoichiometry N: 8 Fabs bound
[7]
  stoichiometry N: 4 Fabs per NPNA8 disc

B10: 227 Fab (Fab, V domains shown)
VH: QVQLVQSGGGVVQPGRSLRLSCVTSGFTFPAFGMHWVRQAPGKGLEWVAVIWYDGSKKYYADSVRGRFTISRDNSRNTLYLQMHSLRAEDTAVYYCARVKNYESSGYSQCLDYWGQGVLVTVAS
VL: QSVLTQPPSVSGAPGQRVTISCTGSSSNIGAGYDVHWYQQLPGTAPKLLIYGNGNRPSGVPDRFSGSKSGTSVSLAITGLQAEDEADYYCQSYDSSLSAFVFGTGTKVTVL
notes: as for B2
[4]
  Kd: 46.3 nM
[5]
  Kd: 23.7 nM

B11: 311 Fab (Fab, V domains shown)
VH: QVQLVESGGGVVPPGRSLRLSCATSGFTFSNYGMHWVRQAPGKGLEWVAIIWYDGSRNFYAASVEGRFTISRDNSKNTLYLQMNSLRVEDTAVYYCARAAYYDTSGYGDYWGQGTLVTVSS
VL: QSVLTQPPSVSGAPGQTVTISCTGGSSNIGAGYDVHWYQQLPGTAPKLLIYGNINRPSGVPDRFSGSKSGTSASLAITGLQAEDEADYYCQSYDRRLSGSWVFGGGTKLTVL
notes: as for B2
[4]
  Kd: 212 nM
[5]
  Kd: 6.11 nM

B12: 311R Fab (Fab, V domains shown)
VH: QVQLVESGGGVVPPGRSLRLSCATSGFTFSSYGMHWVRQAPGKGLEWVAIIWYDGSNKFYAASVKGRFTISRDNSKNTLYLQMNSLRVEDTAVYYCARAAYYDTSGYGDYWGQGTLVTVSS
VL: QSVLTQPPSVSGAPGQTVTISCTGGSSNIGAGYDVHWYQQLPGTAPKLLIYGNINRPSGVPDRFSGSKSGTSASLAITGLQAEDEADYYCQSYDSSLSGSWVFGGGTKLTVL
notes: also called Fab311R; germline-reverted 311; source: ExpiCHO cells, purified (mAb Select PrismA or Capture Select, SEC)
[4]
  Kd: 131 nM
[5]
  Kd: 401 nM

B13: 364 Fab (Fab, V domains shown)
VH: QVQLVESGGGVVQPGGSLRLSCAASGFTFSGYGMHWVRQVPGKGLEWVAIIWFDGSQKYYADSVQGRFTISRDNSKKTLFLRMNSLRAEDTAVYYCAKVHDDEPTQDYWGQGTLVTVSS
VL: DIQMTQSPSTLSASVGDRVTITCRASQGISTSLAWYQQKPGKAPKLLIYKASSLESGVPSRFSGSGSGTEFTLTITSLQPEDFATYYCQQYKRYWTFGQGTKVEIK
notes: also called mAb 364; source: ExpiCHO cells, purified (mAb Select PrismA or Capture Select, SEC)
[1]
  Kd: 4.9 nM
  koff: 0.00027 s⁻¹
  kon: 65000 M⁻¹ s⁻¹
[2]
  Kd: 260 nM
  koff: 0.0027 s⁻¹
  kon: 43000 M⁻¹ s⁻¹

B14: 364 Fab (Fab, V domains shown)
VH: QVQLVESGGGVVQPGGSLRLSCAASGFTFSGYGMHWVRQVPGKGLEWVAIIWFDGSQKYYADSVQGRFTISRDNSKKTLFLRMNSLRAEDTAVYYCAKVHDDEPTQDYWGQGTLVTVSS
VL: DIQMTQSPSTLSASVGDRVTITCRASQGISTSLAWYQQKPGKAPKLLIYKASSLESGVPSRFSGSGSGTEFTLTITSLQPEDFATYYCQQYKRYWTFGQGTKVEIK
notes: as for B2
[4]
  Kd: 260 nM
[5]
  Kd: 4.88 nM

B15: 334 Fab (Fab, V domains shown)
VH: QVQLVESGGGVVQPGRSLTLSCAASGFTFSNYGMHWVRQTPGKGLAWVAIIWYDGSKTYYEDSVKGRFTISRDNSKNTLYLQMNSLRVDDTAVYYCARVRHSSSRHGSAFDLWGQGTLVTVSS
VL: VIQMTQSPSTLSASVGDRVTITCRASQSVSTWLAWYQQKPGQGPKLLIYEASSLESGVPSRFSGSGSGTEFTLTISSLQPDDFATYYCQQYNSYSFWTFGQGTKVEIK
notes: as for B2
[4]
  Kd: 49.9 nM
[5]
  Kd: 22.4 nM

B16: 337 Fab (Fab, V domains shown)
VH: QVQLVESGGGVVQPGRSLRLSCAASGFSFSTYGMHWVRQAPGKGLEWVALIWHDGSKKFYSESVRGRFTISRDNSMDTLYLQMSSLRAEDTAVYYCARDGADYFDSTGGAFDIWGQGTMVIVSS
VL: EIVMTQSPATLSVSPGERATLSCRASQSVSSNLAWYQQKPGQAPRLLIYGASTRATGIPARFSGSGSGTEFTLTISSLQSEDFATYYCQQYKTWWTFGQGTKVEIK
notes: as for B2
[4]
  Kd: 36.9 nM
[5]
  Kd: 39.4 nM
